The values that follow are results of earlier work, collected in paper PMC7519539.

One may read the pKd as the Kd on a negative log10 scale, so that one unit is a factor of ten.

The data set concerns the target RNA polymerase core (E) (Escherichia coli) (UniProt P0A7Z4).

pKd: −log10 of the molar value.

Chain of sigma38 (P13445 whole entry): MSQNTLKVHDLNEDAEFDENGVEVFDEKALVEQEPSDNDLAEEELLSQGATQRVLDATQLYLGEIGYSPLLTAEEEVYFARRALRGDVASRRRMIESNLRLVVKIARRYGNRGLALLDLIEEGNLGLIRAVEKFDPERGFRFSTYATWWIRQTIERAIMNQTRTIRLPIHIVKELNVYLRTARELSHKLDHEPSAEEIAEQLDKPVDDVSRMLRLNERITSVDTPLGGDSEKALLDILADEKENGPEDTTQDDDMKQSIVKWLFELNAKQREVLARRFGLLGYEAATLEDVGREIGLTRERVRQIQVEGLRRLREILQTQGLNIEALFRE

For the substance sigma38 (from UniProt P13445), the pKd is 8.37.
